T1: human FAP (fibroblast activation protein alpha) expressed on HT1080 clone v1.33 cells (human, UniProt Q12884 1-760)
T1 sequence (looked up): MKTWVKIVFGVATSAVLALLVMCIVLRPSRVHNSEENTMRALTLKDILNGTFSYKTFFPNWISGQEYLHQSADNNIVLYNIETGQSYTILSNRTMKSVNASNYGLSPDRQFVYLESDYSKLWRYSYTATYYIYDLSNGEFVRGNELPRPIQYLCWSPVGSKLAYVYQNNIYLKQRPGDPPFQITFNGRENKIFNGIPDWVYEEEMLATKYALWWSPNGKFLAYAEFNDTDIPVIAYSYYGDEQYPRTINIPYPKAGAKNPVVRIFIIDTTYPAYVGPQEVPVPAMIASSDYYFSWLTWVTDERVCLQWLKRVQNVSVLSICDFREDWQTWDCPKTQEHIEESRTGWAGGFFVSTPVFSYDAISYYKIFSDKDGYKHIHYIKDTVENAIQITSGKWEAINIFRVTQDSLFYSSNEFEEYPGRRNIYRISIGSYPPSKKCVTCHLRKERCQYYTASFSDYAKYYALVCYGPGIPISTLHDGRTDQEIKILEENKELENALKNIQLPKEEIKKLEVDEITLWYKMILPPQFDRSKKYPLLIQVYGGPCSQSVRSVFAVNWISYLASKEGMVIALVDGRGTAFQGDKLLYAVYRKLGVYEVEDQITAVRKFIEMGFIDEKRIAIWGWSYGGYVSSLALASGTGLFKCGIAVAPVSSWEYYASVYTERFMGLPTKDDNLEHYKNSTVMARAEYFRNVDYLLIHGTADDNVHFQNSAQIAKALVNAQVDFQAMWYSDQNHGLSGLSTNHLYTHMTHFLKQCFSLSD

T2: murine FAP expressed on HT1080 clone 13.6 cells (mouse, UniProt P97321 1-761)
T2 construct: whole, on cells; also called mouse FAP
T2 sequence (looked up): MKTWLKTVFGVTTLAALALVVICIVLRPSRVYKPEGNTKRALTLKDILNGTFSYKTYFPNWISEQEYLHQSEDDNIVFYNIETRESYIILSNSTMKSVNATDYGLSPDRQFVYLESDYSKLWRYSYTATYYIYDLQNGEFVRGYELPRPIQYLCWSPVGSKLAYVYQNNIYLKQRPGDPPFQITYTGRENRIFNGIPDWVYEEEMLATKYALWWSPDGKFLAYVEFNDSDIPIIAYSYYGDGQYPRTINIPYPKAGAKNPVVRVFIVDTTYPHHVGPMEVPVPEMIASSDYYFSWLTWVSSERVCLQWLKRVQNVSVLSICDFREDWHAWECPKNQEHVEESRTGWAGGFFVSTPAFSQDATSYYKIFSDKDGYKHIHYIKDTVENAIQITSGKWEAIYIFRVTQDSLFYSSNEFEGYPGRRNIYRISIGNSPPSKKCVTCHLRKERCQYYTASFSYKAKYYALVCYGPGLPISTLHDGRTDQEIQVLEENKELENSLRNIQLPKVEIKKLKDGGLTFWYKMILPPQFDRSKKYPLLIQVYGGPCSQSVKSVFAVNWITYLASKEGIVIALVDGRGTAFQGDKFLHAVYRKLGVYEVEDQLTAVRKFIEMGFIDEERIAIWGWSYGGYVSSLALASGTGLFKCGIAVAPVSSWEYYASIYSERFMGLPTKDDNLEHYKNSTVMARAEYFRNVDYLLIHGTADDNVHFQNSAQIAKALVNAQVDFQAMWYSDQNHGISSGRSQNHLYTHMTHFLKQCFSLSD


What was measured:
[1] = target: human FAP (fibroblast activation protein alpha) expressed on HT1080 clone v1.33 cells (human) (UniProt Q12884); assay: cell ELISA on ethanol-fixed HT1080 v1.33 cells expressing human FAP; rabbit anti-human-IgG-peroxidase, TMB, OD 450 nm
[2] = target: T1, human FAP (fibroblast activation …); assay: cell-based or functional assay
[3] = target: T2, murine FAP expressed on HT1080 clone …; assay: cell ELISA on ethanol-fixed HT1080 13.6 cells expressing murine FAP; goat anti-mouse-Ig-peroxidase, TMB, OD 450 nm
Experimental: The binding of BIBH1 and MFP5 antibodies and the respective antibody conjugates BIBH1-DM1 and MFP5-DM1 to antigen positive and negative HT1080 cells is determined in a cell-ELISA assay. […] Stable clones are generated as described for HT1080 v1.33 and clones positive for murine FAP are screened with the murine FAP specific monoclonal antibody 3D11 (Niedermeyer et al., 2000). For the cell ELISA 100 μl of cell suspensions at various cell densities are seeded per well of a 96-well microliter plate and the cells are incubated overnight in an incubator (37° C., 5% CO2). On the next day, cells are fixed with 100% ethanol. Dilutions of the antibodies BIBH1 and MFP5 and of the conjugates BIBH1-DM1 and MFP5-DM1 are added in duplicates and incubated for two hours. After washing three times with PBS/Tween, diluted rabbit anti-human-IgG-peroxidase conjugate is added for detection of the BIBH1 antibodies and for detection of the MFP5 antibodies a diluted goat anti-mouse-Ig-peroxidase conjugate is added. After incubation for two hours at RT plates are washed again three times with PBS/Tween and bound anti-FAP-antibodies detected by addition of TMB staining solution. […] A: Binding to HT1080 v1.33 expressing human FAP. The binding affinity of the antibodies is retained after conjugation to DM1. [0114] […] Only the murine specific antibody MFP5 binds. [0115] C: Negative control.

EC50 (read off the curve) [1] [ng Ab/ml] | EC50, proliferation assay [2] [pM] | Molecule | also measured
8 | – | humanized anti-FAP antibody BIBH1 (sibrotuzumab) | –
10 | – | BIBH1-DM1 (protein, INN chains, looked up, DM1 maytansinoid conjugate) VH: QVQLVQSGAEVKKPGASVKVSCKTSRYTFTEYTIHWVRQAPGQRLEWIGGINPNNGIPNYNQKFKGRVTITVDTSASTAYMELSSLRSEDTAVYYCARRRIAYGYDEGHAMDYWGQGTLVTVSS VL: DIVMTQSPDSLAVSLGERATINCKSSQSLLYSRNQKNYLAWYQQKPGQPPKLLIFWASTRESGVPDRFSGSGFGTDFTLTISSLQAEDVAVYYCQQYFSYPLTFGQGTKVEIK | –
– | – | MFP5-DM1 (MFP5-SPP-DM1, disulfide-linked immunoconjugate) (other) VH: QVQLQQSGAELARPGASVNLSCKASGYTFTNNGINWLKQRTGQGLEWIGEIYPRSTNTLYNEKFKGKATLTADRSSNTAYMELRSLTSEDSAVYFCARTLTAPFAFWGQGTLVTVSA VL: QIVLTQSPAIMSASPGEKVTMTCSASSGVNFMHWYQQKSGTSPKRWIFDTSKLASGVPARFSGSGSGTSYSLTISSMEAEDAATYYCQQWSFNPPTFGGGTKLEIKR | EC50 (concentration resulting in 50% cytotoxic effect), MTS cytotoxicity assay, 3 days [2]: ~0.04 nM
– | 22 | MFP5-SMCC-DM1 (other) VH: QVQLQQSGAELARPGASVNLSCKASGYTFTNNGINWLKQRTGQGLEWIGEIYPRSTNTLYNEKFKGKATLTADRSSNTAYMELRSLTSEDSAVYFCARTLTAPFAFWGQGTLVTVSA VL: QIVLTQSPAIMSASPGEKVTMTCSASSGVNFMHWYQQKSGTSPKRWIFDTSKLASGVPARFSGSGSGTSYSLTISSMEAEDAATYYCQQWSFNPPTFGGGTKLEIKR | –
– | 29 | MFP5-SPDB-DM4 (other) VH: QVQLQQSGAELARPGASVNLSCKASGYTFTNNGINWLKQRTGQGLEWIGEIYPRSTNTLYNEKFKGKATLTADRSSNTAYMELRSLTSEDSAVYFCARTLTAPFAFWGQGTLVTVSA VL: QIVLTQSPAIMSASPGEKVTMTCSASSGVNFMHWYQQKSGTSPKRWIFDTSKLASGVPARFSGSGSGTSYSLTISSMEAEDAATYYCQQWSFNPPTFGGGTKLEIKR | –
– | – | murine monoclonal antibody MFP5 (antibody, mouse IgG2a, V domains shown, also called BIA 13; mAbFAP5) VH: QVQLQQSGAELARPGASVNLSCKASGYTFTNNGINWLKQRTGQGLEWIGEIYPRSTNTLYNEKFKGKATLTADRSSNTAYMELRSLTSEDSAVYFCARTLTAPFAFWGQGTLVTVSA VL: QIVLTQSPAIMSASPGEKVTMTCSASSGVNFMHWYQQKSGTSPKRWIFDTSKLASGVPARFSGSGSGTSYSLTISSMEAEDAATYYCQQWSFNPPTFGGGTKLEIKR | EC50 (read off the curve) [3]: ~6 ng Ab/ml

Reference: patent US20090304718A1 (Boehringer Ingelheim, published 2009)
